According to patent publication US20190256599A1 (GlaxoSmithKline, published 2019):
Each block holds one binder with its values, some of them ahead of it.

B2: recombinant ICOS protein (R&D Systems) (receptor, human, UniProt Q9Y6W8 21-141, looked up)
chain: EINGSANYEMFIFHNGGVQILCKYPDIVQQFKMQLLKGGQILCDLTKTKGSGNTVSIKSLKFCHSQLSNNSVSFFLYNLDHSHANYYFCNLSIFDPPPFKVTLTGGYLHIYESQLCCQLKF
notes: Bought; also called ICOS receptor
B3: rabbit Fc-tagged recombinant human ICOS (Fc fusion, UniProt Q9Y6W8 21-140, looked up, not shown: a dimerising Fc or GST)
chain: EINGSANYEMFIFHNGGVQILCKYPDIVQQFKMQLLKGGQILCDLTKTKGSGNTVSIKSLKFCHSQLSNNSVSFFLYNLDHSHANYYFCNLSIFDPPPFKVTLTGGYLHIYESQLCCQLK
notes: Generated in-house; also called dimeric human ICOS; Fc-fusion version of the recombinant ICOS protein

How the values were obtained:
[1] = biological target: B2; assay: MSD competition assay on plate-coated ICOS; blocked ligand: human ICOS ligand at 1 ug/mL
Protocol: (§1) MSD plates were incubated overnight at 4° C. with 10 μg/mL recombinant ICOS protein (R&D Systems) diluted in PBS. […] Sulfo-tagged streptavidin at 10 μg/mL in Diluent 100 was used for detection of the biotinylated ligand. All incubations were at room temperature for one hour on a plate shaker unless otherwise noted. The plates were read immediately following MSD Read buffer addition on a MSD MESO Quick Plex SQ 120 and data analyzed on MSD workbench software (Meso-Scale, Rockville, Md.).

[2] = biological target: human FcγR IIa (R131) (human) (UniProt P12318); assay: SPR (ProteOn XPR36; table title says BIAcore), His-tagged FcγR captured, antibody as analyte, equilibrium model
human FcγR IIb (human) = human FcγR IIb (human) (UniProt P31994); assay: as above
human FcγR I (human) = human FcγR I (human) (UniProt P12314); assay: as above
[3] = biological target: B3; assay: SPR, Biacore; affinity of H2L5 for dimeric human ICOS against that of ICOS-L
[4] = biological target: B3; assay: BIAcore target capture, capture level hICOS 23.7 RU, Rmax 26.5 RU
[5] = biological target: B2; assay: MSD competition assay: plate-coated recombinant ICOS, H2L5 IgG4PE titrated against 1 µg/mL human ICOS ligand (B7-H2); inhibition is partial
Protocol: as §1, with “Readbuffer” for “Read buffer”, “(Meso Scale Discovery).” for “(Meso-Scale, Rockville, Md.).”

human ICOS on cells = biological target: T1, human ICOS on cells (human, UniProt Q9Y6W8 21-199); assay: cell-based or functional assay
T1 sequence (looked up): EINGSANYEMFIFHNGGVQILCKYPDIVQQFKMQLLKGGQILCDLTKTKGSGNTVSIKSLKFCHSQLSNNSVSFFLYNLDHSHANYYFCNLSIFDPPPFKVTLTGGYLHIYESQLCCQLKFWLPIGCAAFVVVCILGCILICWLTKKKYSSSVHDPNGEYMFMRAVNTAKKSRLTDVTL

[6] = biological target: rabbit Fc-tagged recombinant Cynomolgus ICOS (cynomolgus macaque); assay: SPR, Biacore T200, Fc-tagged recombinant cynomolgus ICOS, 1:1 kinetics model
[7] = biological target: rabbit Fc-tagged recombinant Cynomolgus ICOS (cynomolgus macaque); assay: Biacore (SPR), column MONKEY ka (1/Ms)
[8] = biological target: B3; assay: BIAcore target capture, capture level hICOS 39.8 RU, Rmax 40.5 RU
[9] = biological target: rabbit Fc-tagged recombinant Cynomolgus ICOS (cynomolgus macaque); assay: Biacore (SPR), column MONKEY kd (1/s)
[10] = biological target: B3; assay: Biacore (SPR), column HUMAN ka (1/Ms)
Text: (§2) The ICOS binding data was fitted to a 1:1 kinetics model using the T200 data analysis software.

[11] = biological target: B3; assay: Biacore (SPR), column HUMAN kd (1/s)
Text: as §2

[12] = biological target: B3; assay: SPR, Biacore T200, Fc-tagged recombinant human ICOS, 1:1 kinetics model
Text: as §2

[13] = biological target: T2, human ICOS ligand (B7-H2) (human, UniProt O75144 19-258, limits assumed); assay: MSD plate assay: 1 µg/mL human ICOS ligand (B7-H2) on plate-coated recombinant ICOS, detected with biotinylated anti-ICOS-L and sulfo-tag streptavidin
T2 construct: also called native ICOS-L; CD275
T2 sequence (looked up): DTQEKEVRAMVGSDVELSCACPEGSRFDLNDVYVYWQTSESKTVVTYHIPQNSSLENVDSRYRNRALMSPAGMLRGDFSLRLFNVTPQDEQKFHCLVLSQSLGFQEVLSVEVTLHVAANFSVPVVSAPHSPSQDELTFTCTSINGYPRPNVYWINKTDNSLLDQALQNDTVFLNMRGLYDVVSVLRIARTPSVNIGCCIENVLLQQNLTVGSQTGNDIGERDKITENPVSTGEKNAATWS
Protocol: as §1, with “Readbuffer” for “Read buffer”, “(Meso Scale Discovery).” for “(Meso-Scale, Rockville, Md.).”

[14] = biological target: T2, human ICOS ligand (B7-H2); assay: Biacore (SPR), human ICOS-L on dimeric human ICOS
[15] = biological target: T2, human ICOS ligand (B7-H2); assay: Biacore sensorgrams with fitted curves, ICOS-L on dimeric human ICOS

Chain of human FcγR IIb (human) (P31994 46-217 limits assumed): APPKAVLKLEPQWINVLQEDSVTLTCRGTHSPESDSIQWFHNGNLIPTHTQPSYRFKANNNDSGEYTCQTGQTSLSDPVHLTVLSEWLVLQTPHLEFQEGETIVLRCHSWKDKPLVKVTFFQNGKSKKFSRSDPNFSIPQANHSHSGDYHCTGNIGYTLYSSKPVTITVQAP
Chain of human FcγR IIa (R131) (human) (P12318 36-218 H167R limits assumed): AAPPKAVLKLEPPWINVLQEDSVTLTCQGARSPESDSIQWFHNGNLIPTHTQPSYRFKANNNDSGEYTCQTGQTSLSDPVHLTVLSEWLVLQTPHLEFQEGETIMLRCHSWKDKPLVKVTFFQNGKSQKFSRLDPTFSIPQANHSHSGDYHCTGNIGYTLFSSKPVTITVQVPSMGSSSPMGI
Chain of human FcγR I (human) (P12314 16-288 limits assumed): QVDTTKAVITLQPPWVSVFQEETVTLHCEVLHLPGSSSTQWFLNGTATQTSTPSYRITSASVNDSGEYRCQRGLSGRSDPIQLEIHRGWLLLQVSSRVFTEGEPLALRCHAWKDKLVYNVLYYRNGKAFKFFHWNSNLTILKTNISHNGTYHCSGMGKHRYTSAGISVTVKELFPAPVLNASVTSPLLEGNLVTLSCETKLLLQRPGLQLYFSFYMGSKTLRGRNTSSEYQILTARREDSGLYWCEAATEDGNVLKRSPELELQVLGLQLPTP

IC50 (read off the curve) [1]: ~2 µg/mL
Kd [2]: 2500 nM
Kd (human FcγR IIb (human)): 1470 nM
Kd (human FcγR I (human)): 645 nM
fold higher affinity than native ICOS-L/CD275 [3]: ~17 fold
stoichiometry [4]: 0.6
IC50 (read off the curve) [5]: ~2 µg/mL
EC50 of IFNγ induction, isolated human CD4+ T cells, immobilized format, first donor (human ICOS on cells): 3.8 µg/mL
EC50 of IFNγ induction, isolated human CD4+ T cells, immobilized format, second donor (human ICOS on cells): 4.5 µg/mL
EC50 of IFNγ induction, isolated human CD4+ T cells, soluble format, first donor (human ICOS on cells): 6 µg/mL
EC50 of IFNγ induction, isolated human CD4+ T cells, soluble format, second donor (human ICOS on cells): 4.3 µg/mL
Kd [6]: 0.95 nM
kon [7]: 391000 M⁻¹ s⁻¹
stoichiometry [8]: 0.5
koff [9]: 0.000371 s⁻¹
kon [10]: 297000 M⁻¹ s⁻¹
koff [11]: 0.000396 s⁻¹
Kd [12]: 1.34 nM
B1: H2L5 IgG4PE (antibody, V domains shown)
VH: QVQLVQSGAEVKKPGSSVKVSCKASGYTFTDYAMHWVRQAPGQGLEWMGLISIYSDHTNYNQKFQGRVTITADKSTSTAYMELSSLRSEDTAVYYCGRNNYGNYGWYFDVWGQGTTVTVSS
VL: EIVLTQSPATLSLSPGERATLSCSASSSVSYMHWYQQKPGQAPRLLIYDTSKLASGIPARFSGSGSGTDYTLTISSLEPEDFAVYYCFQGSGYPYTFGQGTKLEIK
notes: Humanized variant of murine clone 422.2; human IgG4 with S228P and L235E (EU numbering), called IgG4PE; also called H2L5 hIgG4PE; ICOS IgG4PE

Binder: B2
binding result [13]: binds

Binder: B3
Kd [14]: 22.6 nM
Kd [15]: 22.6 nM
